Results on three molecules are retold here after patent JP2006523083A (dated 2006).

The target of assay [1] is ビオチン化EpoR(Abbott CHO細胞由来 ref.#RB69084:4) (UniProt P19235). Description: immunofluorescence microscopy on EpoR-coated sheep red cells, MAB307 plus Alexa488 anti-mouse IgG Fc.
Assay [2] concerns the target T1, 可溶性EPO受容体(sEPOR)(R&D Systems Cat.#307-ER/LF) (human, UniProt P19235 25-250).
T1 construct: extracellular domain; The ELISA paragraph names only 'soluble EPO receptor' with the catalogue number; also called sEPOR; 固相化エリスロポエチン受容体
T1 sequence (looked up): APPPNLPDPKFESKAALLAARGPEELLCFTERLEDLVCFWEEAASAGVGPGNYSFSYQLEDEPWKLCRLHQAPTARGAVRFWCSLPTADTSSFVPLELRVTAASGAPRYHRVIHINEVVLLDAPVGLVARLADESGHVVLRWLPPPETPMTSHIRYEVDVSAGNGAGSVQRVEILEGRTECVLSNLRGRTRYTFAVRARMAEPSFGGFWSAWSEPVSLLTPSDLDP
As to the kind of experiment: BIAcore (antibody immobilised, soluble human EPO receptor injected), as paragraph 65 attributes it; values not given. (In general: In SPR one partner is held on a chip, and binding of the other changes the refractive index at the surface.)

In another assay the target is T2, 全長組換えヒトEPO受容体(CHO細胞に発現) (human, UniProt P19235 25-508).
T2 construct: whole, on cells; also called 組換えEPO受容体を発現するCHO細胞; エリスロポエチン受容体
T2 sequence (looked up): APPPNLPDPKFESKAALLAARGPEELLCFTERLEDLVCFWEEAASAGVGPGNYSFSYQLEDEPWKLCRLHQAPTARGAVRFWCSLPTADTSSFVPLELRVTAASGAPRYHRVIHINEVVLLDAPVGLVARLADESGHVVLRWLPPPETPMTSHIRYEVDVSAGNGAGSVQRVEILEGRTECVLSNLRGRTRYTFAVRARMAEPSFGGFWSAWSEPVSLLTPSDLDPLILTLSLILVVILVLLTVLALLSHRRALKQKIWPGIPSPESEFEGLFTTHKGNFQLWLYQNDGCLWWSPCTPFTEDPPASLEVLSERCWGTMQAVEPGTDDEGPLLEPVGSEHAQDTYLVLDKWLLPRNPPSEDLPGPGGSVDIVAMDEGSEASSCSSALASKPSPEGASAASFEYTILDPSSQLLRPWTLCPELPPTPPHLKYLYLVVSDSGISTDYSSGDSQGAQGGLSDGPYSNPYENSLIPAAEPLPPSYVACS
Description: competition with 125I-EPO on CHO cells expressing full-length human EPO receptor.

Assay [3] has as its target ヒトエリスロポエチン受容体(UT-7/Epo細胞・F36E細胞上) (human), P19235. As to the kind of experiment: cell-based or functional assay.
For a further assay, the target named is T3, ペプチドSE−3 (human).
T3 construct: also called SE-3; SE-3ペプチド
T3 peptide: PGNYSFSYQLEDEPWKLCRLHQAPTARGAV
As to the kind of experiment: ELISA on plate-coated SE-3 peptide (5 μg/ml), anti-human IgG (Fc)-HRP. Background: In an ELISA, binding on a coated surface is turned into a signal by an enzyme label.

With “マウス抗EpoR抗体(R&D Systems Cat.# MAB307) (antibody)”, the immunofluorescence score (0-4 scale) in assay [1] is 4 of 4.

B1: Ab198 (antibody, V domains shown)
VH: QVQLVESGGGVVQPGRSLRLSCVASGFTFSSYGMHWVRQAPGKGLEWVAVISYDGSNKYYADSVKGRFTISRDNSKNTLYLQMNSLRVEDTAVYYCARDHGGRYVYDYGMDVWGQGTTVTVSS
VL: DIQMTQSPSSVSASIGDRVSITCRASQGISSWLAWYQQKPGKAPTLLIYAASTLQRGVPSRFSGSGSGTDFTLTISSLQPEDFATYFCQQANSFPFTFGPGTKVDIK
notes: These were not used; also called AB-ABT2-XG2-198; ABT2-XG2-198
For B1, the binding result (in assay [2]; in the assay with 全長組換えヒトEPO受容体(CHO細胞に発現)) was “binds” throughout.

B2: Ab12 (antibody, V domains shown)
VH: QVQLQESGPGLVKPSETLSLTCTVSGASISSYYWSWIRQPPGKGLEWIGYIYYSGSTNYNPSLKSRVTISVDTSKNQFSLKLRSVTAADTAVYYCARERLGIGDYWGQGTLVTVSS
VL: DIQLTQSPSSLSASVGDRVTITCRASQGIRNDLGWYQQKPGKAPKRLIYAASSLQSGVPSRFSGSGSGTEFTLTISSLQPEDFATYYCLQHNTYPPTFGQGTKVEIK
notes: Human antibody (XenoMouse XG2); also called AB-ABT2-XG2-012; ABT2-XG2-012
With B2, the F36E細胞の増殖:EPO対照との最大応答の差(モル当量基準) in assay [3] was 10 倍. For the same molecule, the figures for the binding result (in assay [2]; in the assay with ペプチドSE−3; with 全長組換えヒトEPO受容体(CHO細胞に発現)) were “binds”, “no binding (tested: 5 μg/ml Ab12)” and “binds”, respectively.
